Measured values: patent publication US20090286723A1

Experiments:
[1] = molecular target: calcitonin receptor; test: cell-based or functional assay
[2] = molecular target: calcitonin receptor; test: calcitonin receptor binding assay
[3] = molecular target: neuropeptide Y2 receptor (SK-N-BE cell membranes) (UniProt P49146); test: [125I]-human PYY displacement, SK-N-BE membranes
neuropeptide Y2 receptor (SK-N-BE cell membranes), sequence (P49146 whole entry): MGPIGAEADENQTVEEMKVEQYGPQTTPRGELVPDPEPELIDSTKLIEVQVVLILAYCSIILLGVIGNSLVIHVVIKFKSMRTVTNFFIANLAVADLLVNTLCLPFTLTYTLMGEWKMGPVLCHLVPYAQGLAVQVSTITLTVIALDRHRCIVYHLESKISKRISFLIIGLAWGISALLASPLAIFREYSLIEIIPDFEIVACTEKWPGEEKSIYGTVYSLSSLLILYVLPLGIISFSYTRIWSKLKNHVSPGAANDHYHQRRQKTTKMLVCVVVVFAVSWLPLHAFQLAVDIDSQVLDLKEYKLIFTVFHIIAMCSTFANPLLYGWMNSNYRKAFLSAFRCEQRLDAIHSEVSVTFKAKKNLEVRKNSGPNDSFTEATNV

Receptor Activation: CT cyclase [1]	Receptor Binding [2]	Receptor Binding [3]	Substance
–	–	0.2	[Ac-alpha-MSH-bAla-bAla-PYY-(3-36), amide] (peptide; modification not given)
–	–	0.8	[Asp(#)-miniPEG-Gly-PYY (3-36), amide] [#Cys-Gly-Gly-PYY (3-36), amide] (peptide; modification not given)

Continued, substance first:

Substance	Receptor Activation: CT cyclase [1]	Receptor Binding [2]	Receptor Binding [3]
[#NH-Cys-(bAla)-PYY-(3-36), amide] [#Suc-(bAla)-PYY-(3-36), amide] (peptide)	2270	643	–
[#Cys-Gly-Gly-PYY (3-36), amide] [Asp(#)-miniPEG3-Gly-PYY (3-36), amide] (peptide; modification not given)	–	–	0.8
[#Cys-Gly-Gly-PYY (3-36), amide] [Asp(#)-Pro-Pro-Pro-Pro-Pro-Pro-PYY (3-36), amide] (peptide; modification not given)	–	–	0.8
